# Columns and labels:
# [1] = biological target: native AdcAII of Streptococcus pneumoniae D39 (Streptococcus pneumoniae D39 (endogenous in D39 membranes)); experiment: co-IP; S. pneumoniae D39 membranes solubilised in 2% Triton X-100, not cross-linked (IP); polyclonal antibody against AdcAII and protein A sepharose; 50 mM HEPES, 150 mM NaCl, pH 8, washes with 2% Triton X-100; immunoblot, signals quantified with Image J
# [2] = biological target: native AdcAII of Streptococcus pneumoniae D39 (Streptococcus pneumoniae D39 (endogenous in D39 membranes)); experiment: cross-linking + co-IP; S. pneumoniae D39 membrane preparations incubated with the thiol-cleavable cross-linker DTSSP (0.8 mM, 1 h) before the immuno-precipitation (x-IP); polyclonal antibody against AdcAII and protein A sepharose; immunoblot, signals quantified with Image J
substance,measurement,setting,value
native PhtD (polyhistidine triad protein D) of Streptococcus pneumoniae D39 (natural protein),percentage of membrane-bound protein immuno-precipitated by AdcAII polyclonal antibodies,[1],1.7%
same,percentage of membrane-bound protein immuno-precipitated by AdcAII polyclonal antibodies,[2],12%
